Earlier results as cited in patent US12129294B2, “Methods of treatment of diseases in which IL-13 activity is detrimental using anti-IL-13 antibodies” (AbbVie Inc., priority 2016, dated 2024).

System: eosinophilic esophagitis (EoE)
Details: QAX576 study, N = 17, cited from earlier work

B1: QAX576: anti-IL-13 antibody dectrekumab (QAX-576), comparator study in Table 6 (antibody, chains of the INN, looked up, V domains shown)
VH: EVQLVESGGGVVQPGRSLRLSCAASGFTFSSYGMHWVRQAPGKGLEWVAIIWYDGSNKYYADSVKGRFTISRDNSKNTLYLQMNSLRAEDTAVYYCARLWFGDLDAFDIWGQGTMVTVSS
VL: EIVLTQSPATLSLSPGERAILSCRAGQSVSSYLVWYQQKPGQAPRLLIYDASNRATGIPARFSGSGSGTDFTLTISSLEPEDFAVYYCQQRSSWPPVYTFGQGTKLEIK
EEOC Mean BL (baseline): 35.4
EEOC Peak BL (baseline): 88.2
EEOC Mean post (post treatment): 14.6
